According to patent publication US20090155164A1 (Amgen, published 2009):
Read-outs that look alike come from different tables or passages of the source.

Assays:
[1] = molecular target: T1, monomeric human c-fms (residues 1-512)-pHis (human, UniProt P07333 20-512); experiment: Biacore 3000, 25 C; mAb captured on goat anti-human IgG Fc, monomeric c-fms(1-512)-pHis analyte, 1:1 fit
T1 construct: Construct stated as residues 1-512; signal stated as amino acids 1-19 and left out; also called human c-fms (1-512).pHIS; monomeric c-fms
T1 sequence (P07333 20-512): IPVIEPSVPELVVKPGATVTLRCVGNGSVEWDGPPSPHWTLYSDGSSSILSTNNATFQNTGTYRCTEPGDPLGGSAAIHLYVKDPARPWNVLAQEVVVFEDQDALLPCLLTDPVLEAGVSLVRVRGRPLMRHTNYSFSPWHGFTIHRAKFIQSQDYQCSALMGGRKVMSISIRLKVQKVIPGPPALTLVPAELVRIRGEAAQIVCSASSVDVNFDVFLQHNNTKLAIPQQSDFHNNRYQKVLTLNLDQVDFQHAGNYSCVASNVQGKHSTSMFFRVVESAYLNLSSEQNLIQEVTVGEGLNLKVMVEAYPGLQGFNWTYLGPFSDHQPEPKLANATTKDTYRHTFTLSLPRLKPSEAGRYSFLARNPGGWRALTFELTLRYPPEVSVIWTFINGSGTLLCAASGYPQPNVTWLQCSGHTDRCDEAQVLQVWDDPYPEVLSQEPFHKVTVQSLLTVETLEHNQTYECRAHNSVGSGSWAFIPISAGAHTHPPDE
Description: (§1) Anti-c-fms 1.2 or 1.2 SM at 0.25 μg/ml was injected over goat anti-human IgG, Fcγ in one flow cell for 2 minutes at 10 μl/min to obtain a surface density of ˜47 RUs. Another flow cell with goat anti-human IgG, Fcγ alone was used as a reference surface. Each assay started with ten cycles of buffer as the analyte to stabilize the signal. […] Each complex was allowed to associate for 2 minutes, and dissociate for 5 minutes. The surfaces were regenerated after each c-fms or buffer injection with a 30-second pulse of 10 mM glycine HCl, pH 1.5 at 100 μl/min, followed by a 30-second injection of buffer.
(§2) Other anti-c-fms antibodies were tested in a similar manner, but changes were made to the protocol to account for differences in binding characteristics.
(§3) Data was double referenced by subtracting the reference surface responses to remove bulk refractive index changes, and then subtracting the averaged buffer blank response to remove systematic artifacts from the experimental flow cells.

[2] = molecular target: T2, human c-fms, full length, on cells (human, UniProt P07333 20-972); experiment: inhibition of 125I-hCSF-1 binding to AML-5 cells, 4 C; competitor: 125I-hCSF-1
T2 construct: whole, on cells; also called CSF-1R
T2 sequence (P07333 20-972): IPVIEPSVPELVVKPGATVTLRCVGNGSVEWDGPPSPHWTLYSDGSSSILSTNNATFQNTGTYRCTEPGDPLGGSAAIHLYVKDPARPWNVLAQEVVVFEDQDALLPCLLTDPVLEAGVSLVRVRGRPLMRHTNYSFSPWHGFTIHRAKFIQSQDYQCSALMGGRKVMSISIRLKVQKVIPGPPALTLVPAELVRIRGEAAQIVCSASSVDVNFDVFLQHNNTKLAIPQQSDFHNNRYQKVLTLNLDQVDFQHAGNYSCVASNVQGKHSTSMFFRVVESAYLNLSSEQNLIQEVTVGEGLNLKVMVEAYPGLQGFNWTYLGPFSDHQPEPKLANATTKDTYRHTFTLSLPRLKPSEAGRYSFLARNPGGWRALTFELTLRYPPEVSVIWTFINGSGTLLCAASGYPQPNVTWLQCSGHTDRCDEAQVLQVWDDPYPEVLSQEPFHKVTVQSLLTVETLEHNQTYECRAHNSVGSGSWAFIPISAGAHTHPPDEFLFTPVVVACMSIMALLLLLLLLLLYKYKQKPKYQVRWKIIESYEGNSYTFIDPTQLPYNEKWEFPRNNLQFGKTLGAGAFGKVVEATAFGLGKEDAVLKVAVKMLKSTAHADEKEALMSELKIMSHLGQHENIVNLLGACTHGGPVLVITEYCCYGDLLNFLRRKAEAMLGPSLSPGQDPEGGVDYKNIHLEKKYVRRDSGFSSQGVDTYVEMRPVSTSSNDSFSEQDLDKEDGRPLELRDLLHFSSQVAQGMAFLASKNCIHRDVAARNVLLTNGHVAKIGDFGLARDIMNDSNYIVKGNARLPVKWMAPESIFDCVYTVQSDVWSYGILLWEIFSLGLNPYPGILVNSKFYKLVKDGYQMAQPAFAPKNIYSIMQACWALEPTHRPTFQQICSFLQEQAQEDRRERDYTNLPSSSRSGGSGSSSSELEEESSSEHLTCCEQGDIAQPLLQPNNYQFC
Description: (§4) A saturation radioligand binding experiment was performed in conjunction with each inhibition assay in order to determine both a KD and […] for hCSF-1 binding to c-fms expressed on the surface of AML-5 cells. Mixtures were set up in 96-well round-bottom microtiter plates with total volumes of 150 μl/well. All reagents were diluted in binding media containing 0.2% sodium azide and experiments were conducted at 4° C. to minimize potential receptor internalization and shedding.
(§5) For the saturation binding assay, ¹²⁵I-hCSF-1 was serially diluted 2-fold, starting at a concentration of ˜1.7 nM and going out 12 wells to a concentration of ˜1.5 pM. Nonspecific binding was measured at a single concentration of ¹²⁵I-hCSF-1 (˜80 pM, in triplicate) in the presence of a 1,000-fold molar excess of unlabeled hCSF-1, and assumed to be a linear function of the concentration of radiolabeled hCSF-1 present.

[3] = molecular target: T1, monomeric human c-fms (residues …); experiment: SPR, Biacore 3000, monomeric c-fms; reference: parent 1.109
Description: (§6) The binding affinities of the somatic mutation corrected antibodies to monomeric c-fms protein were measured by surface plasmon resonance using a Biacore 3000 instrument.
(§7) The affinity of human c-fms (1-512). pHIS (Amgen) for the anti-c-fms mAbs was measured by Biacore. Experiments were conducted at 25° C. using a Biacore 3000 instrument (Biacore AB) equipped with a CM4 sensor chip. Sensor chips, amine coupling reagents (EDC (1-ethyl-3(3-dimethylaminopropyl)-carbodiimide hydrochloride), NHS (N-hydroxysuccinimide), and ethanolamine-HCl, pH 8.5), 10 mM sodium acetate, pH 5.5, HBS-EP (0.01 M HEPES pH 7.4, 0.15 M NaCl, 3 mM EDTA, 0.005% v/v Surfactant P20), and 10 mM glycine-HCl, pH 1.5 were purchased from Biacore AB. Bovine serum albumin (BSA, Bovuminar Standard Powder) was purchased from Serological Corporation. AffiniPure Goat Anti-Human IgG, Fcγ Fragment Specific was purchased from Jackson ImmunoResearch Laboratories.
as §2

[4] = molecular target: T1, monomeric human c-fms (residues …); experiment: Biacore (summary table)
Description: as §1, §2, §3

[5] = molecular target: T1, monomeric human c-fms (residues …); experiment: Biacore, monomeric c-fms
Description: as §6, §7, §2

[6] = molecular target: T2, human c-fms, full length, on cells; experiment: cell-based or functional assay
[7] = molecular target: T2, human c-fms, full length, on cells; experiment: inhibition of 125I-CSF-1 binding to AML-5 cells; competitor: 125I-CSF-1 (summary table)
Description: as §4
(§8) Both assays were incubated at 4° C. on a miniorbital shaker for 4 hours, the length of time needed to reach equilibrium as determined in time course experiments. Two 60 μl aliquots of each incubation mixture were transferred to chilled 400 μl polyethylene centrifuge tubes containing 200 μl phthalate oil and spun for 1.5 minutes in a 4° C. tabletop microfuge (Sorvall,) at 9615×g to separate cell associated ¹²⁵I-hCSF-1 from free ¹²⁵I-hCSF-1. The oil tubes were cut, and each cell pellet and supernatant collected in individual 12×75 mm glass tubes and loaded on a COBRA gamma counter (Packard Instrument Company) for cpm measurements. Cpm from duplicate aliquots taken from each well were averaged for analysis.
(§9) Mean K₁ values from 2 experiments were reported (see, TABLE 13).

[8] = molecular target: T3, cynomolgus monkey c-fms on primary bone marrow cells (cynomolgus monkey); experiment: cell-based or functional assay
[9] = molecular target: T3, cynomolgus monkey c-fms on primary bone …; experiment: cell-based or functional assay; remark: listed apart in the source
[10] = molecular target: T2, human c-fms, full length, on cells; experiment: cell-based or functional assay; remark: listed apart in the source
[11] = molecular target: T3, cynomolgus monkey c-fms on primary bone …; experiment: cell-based or functional assay; remark: listed apart in the source
[12] = molecular target: T2, human c-fms, full length, on cells; experiment: cell-based or functional assay; remark: listed apart in the source
[13] = molecular target: T3, cynomolgus monkey c-fms on primary bone …; experiment: cell-based or functional assay; remark: listed apart in the source
[14] = molecular target: T1, monomeric human c-fms (residues …); experiment: Biacore, low resolution; hybridoma mAb captured on anti-human IgG, monomeric c-fms-pHis analyte at 125 nM
Description: Anti-human IgG was immobilized on all four flow cells of a sensor chip using amine coupling. Crude hybridoma samples were diluted into halves and captured on the anti-IgG surface. […] Sequence lineage analyses were also performed on the 29 hybridomas (see, FIG. 2).

[15] = molecular target: T2, human c-fms, full length, on cells; experiment: cell-based or functional assay; remark: listed apart in the source
[16] = molecular target: T3, cynomolgus monkey c-fms on primary bone …; experiment: cell-based or functional assay; remark: listed apart in the source
[17] = molecular target: T2, human c-fms, full length, on cells; experiment: cell-based or functional assay; remark: listed apart in the source
[18] = molecular target: T2, human c-fms, full length, on cells; experiment: cell-based or functional assay; remark: listed apart in the source
[19] = molecular target: T2, human c-fms, full length, on cells; experiment: saturation radioligand binding on AML-5 cells, 4 C; 125I-labelled hCSF-1, saturation binding, 4 C
Description: as §5, §8, §9

[20] = molecular target: T2, human c-fms, full length, on cells; experiment: inhibition of 125I-hCSF-1 binding to AML-5 cells, 4 C; unlabeled hCSF-1, competitive inhibition of 125I-hCSF-1, 4 C
Description: as §4, §8, §9

[21] = molecular target: T1, monomeric human c-fms (residues …); experiment: SPR, Biacore 3000, monomeric c-fms; reference: parent 2.360
Description: as §6, §7, §2

Binder | Kd [1] [nM] | koff [1] [s⁻¹] | kon [1] [M⁻¹ s⁻¹] | Ki [2] [nM] | Kd [4] [nM] | Kd [5] [nM] | antibody concentration that prevented CSF-1-induced pTyr/c-fms, 293T/c-fms cells [6] [µg/ml] | Ki [7] [nM] | Cynomolgus Bone Marrow Proliferation IC50 [8] [nM] | Cynomolgus bone marrow bioassay IC50 [9] [nM] | AML-5 bioassay IC50 [10] [ng/mL] | Human CD14+ monocytes bioassay IC50 [10] [ng/mL] | Cynomolgus bone marrow bioassay IC50 [11] [ng/mL] | AML-5 bioassay IC50 [12] [nM] | Human CD14+ monocytes bioassay IC50 [12] [nM] | Cynomolgus bone marrow bioassay IC50 [13] [nM] | Kd [14] [nM] | koff [14] [s⁻¹] | kon [14] [M⁻¹ s⁻¹] | other results
anti-c-fms IgG2 clone 1.109 SM (somatic mutation cured) (antibody, V domains shown, Recombinant IgG2 kappa; light chain Asn-28 to Asp and Asn-45 to Lys) VH: not shown VL: DIQMTQSPSSLSASVGDRVTITCQASQDISNFLDWYQQKPGKAPKLLIYDASDLDPGVPSRFSGSGSGTDFTFTISSLQPEDIATYYCQQYVSLPLTFGGGTKVEIKR | 0.102 | 0.000271 | 2.66e+06 | 0.0097 | 0.102 | 0.102 | ≥ 0.1 | 0.0097 | 0.023 | 0.023 |  |  |  |  |  |  |  |  |  | fold loss of affinity against the parent antibody [3]: 2 fold
anti-c-fms IgG2 clone 1.2 SM (somatic mutation cured) (antibody, V domains shown, Recombinant IgG2 kappa; light chain Ser-78 reverted to germline Thr; also called 1.2.1 SM; antibody 1.2 SM) VH: QVQLVQSGAEVKKPGASVKVSCKASGYTFTSYGISWVRQAPGQGLEWMGWISAYNGNTNYAQKLQGRVTMTTDTSTSTAYMELRSLRSDDTAVYYCARESWFGEVFFDYWGQGTLVTVSS VL: not shown | 0.548 | 0.00199 | 3.62e+06 | 0.0115 | 0.548 | 0.548 | ≥ 0.1 | 0.0115 | 0.081 | 0.081 |  |  |  |  |  |  |  |  |  | IC50 of 1.2 SM in the presence of hCSF-1, human bone marrow monocytic cell proliferation, Average [15]: 0.0155 nM; IC50 of 1.2 SM in the presence of hCSF-1, human bone marrow monocytic cell proliferation, Expt. 1 [15]: 0.0155 nM; IC50 of 1.2 SM in the presence of hCSF-1, human bone marrow monocytic cell proliferation, Expt. 2 [15]: 0.0201 nM; IC50 of 1.2 SM in the presence of hCSF-1, human bone marrow monocytic cell proliferation, Expt. 3 [15]: 0.0109 nM; IC50 of 1.2 SM in the presence of hCSF-1, cynomolgus bone marrow monocytic cell proliferation, Average [16]: 0.0327 nM; IC50 of 1.2 SM in the presence of hCSF-1, cynomolgus bone marrow monocytic cell proliferation, Expt. 1 [16]: 0.0425 nM; IC50 of 1.2 SM in the presence of hCSF-1, cynomolgus bone marrow monocytic cell proliferation, Expt. 2 [16]: 0.026 nM; IC50 of 1.2 SM in the presence of hCSF-1, cynomolgus bone marrow monocytic cell proliferation, Expt. 3 [16]: 0.0229 nM; AML-5 proliferation IC50 [17]: 0.012 nM; AML-5 bioassay IC50 [18]: 0.012 nM
recombinant human CSF-1 (ligand, UniProt P09603 33-190, looked up, also called hCSF-1) EEVSEYCSHMIGSGHLQSLQRLIDSQMETSCQITFEFVDQEQLKDPVCYLKKAFLLVQDIMEDTMRFRDNTPNAIAIVQLQELSLRLKSCFTKDYEEHDKACVRTFYETPLQLLEKVKNVFNETKNLLDKDWNIFSKNCNNSFAECSSQDVVTKPDCN |  |  |  |  |  |  |  |  |  |  |  |  |  |  |  |  |  |  |  | Kd [19]: 0.046 nM; Ki [20]: 0.0178 nM
anti-c-fms IgG2 clone 2.360 SM (somatic mutation cured) (antibody, V domains shown, Recombinant IgG2 kappa; heavy chain Val-79 to Ala, light chain Gln-45 to Lys) VH: QVQLVQSGAEVKKPGASVKVSCKVSGYTLTELSMHWVRQAPGKGLEWMGGFDPEDGETIYAQKFQGRVTMTEDTSTDTAYMELSSLRSEDTAVYYCATGVMITFGGVIVGHSYYGMDVWGQGTTVTVSS VL: DIQMTQSPSSLSASVGDRVTITCRASQGINNYLAWYQQKPGKVPKLLIYVASTLQSGVPSRFSGSGSGTDFTLTISSLQPEDVATYYCQKYNSGPFTFGPGTKVDIKR | 1.2 | 0.000955 | 794000 | ~0.9 | 1.2 | 1.2 |  | ~0.9 |  |  |  |  |  |  |  |  |  |  |  | fold loss of affinity against the parent antibody [21]: 2 fold; AML-5 proliferation assay, loss in potency relative to the parent IgG2 antibody [6]: 10 fold

Further lines, with some results ahead:

Kd [1] [nM] | koff [1] [s⁻¹] | kon [1] [M⁻¹ s⁻¹] | Ki [2] [nM] | Kd [4] [nM] | Kd [5] [nM] | antibody concentration that prevented CSF-1-induced pTyr/c-fms, 293T/c-fms cells [6] [µg/ml] | Ki [7] [nM] | Cynomolgus Bone Marrow Proliferation IC50 [8] [nM] | Cynomolgus bone marrow bioassay IC50 [9] [nM] | AML-5 bioassay IC50 [10] [ng/mL] | Human CD14+ monocytes bioassay IC50 [10] [ng/mL] | Cynomolgus bone marrow bioassay IC50 [11] [ng/mL] | AML-5 bioassay IC50 [12] [nM] | Human CD14+ monocytes bioassay IC50 [12] [nM] | Cynomolgus bone marrow bioassay IC50 [13] [nM] | Kd [14] [nM] | koff [14] [s⁻¹] | kon [14] [M⁻¹ s⁻¹] | Binder | other results
 |  |  |  |  |  |  |  |  |  | 6 | 10 | 25 | 0.04 | 0.067 | 0.167 | 4.7 | 0.0014 | 300000 | anti-c-fms hybridoma antibody 2.475 (antibody, IgG2, V domains shown, Hybridoma IgG2 (cohort 2); also called 2.475.2) VH: QVQLVESGGGVVQPGRSLRLSCAASGFTFISYGMHWVRQAPGKGLEWVAVIWYDGSNKYYADSVKGRFTISRDNSKNTLYLQMNSLRAEDTAVYYCADSSGDYYGMDVWGQGTTVTVSS VL: DIQMIQSPSSLSASVGDRVTITCQASHDISNYLNWYQQKPGKAPKFLISDASNLETGVPSRFSGSGSGTDFTFTISSLQPEDIATYYCQQYDNLPLTFGGGTKVEIK | 
 |  |  |  |  |  |  |  |  |  | 4 | 10 | 8 | 0.027 | 0.067 | 0.053 | 5.6 | 0.000338 | 60500 | anti-c-fms hybridoma antibody 2.360 (antibody, IgG2, V domains shown, Hybridoma IgG2 (cohort 2)) VH: QVQLVQSGAEVKKPGASVKVSCKVSGYTLTELSMHWVRQAPGKGLEWMGGFDPEDGETIYAQKFQGRVTMTEDTSTDTVYMELSSLRSEDTAVYYCATGVMITFGGVIVGHSYYGMDVWGQGTTVTVSS VL: DIQMTQSPSSLSASVGDRVTITCRASQGINNYLAWYQQKPGKVPQLLIYVASTLQSGVPSRFSGSGSGTDFTLTISSLQPEDVATYYCQKYNSGPFTFGPGTKVDIK | 
